Experimental data taken from patent US20230310584A1 (published 2023).
Values joined by “and” are separate entries in the source; they are usually repeats but may differ in a detail not shown here. Identical values can stand only once.

Target: RBD-iFcv1 (SARS-CoV-2; human, 23 residues replaced …)

B1: His-tagged CD64 (Acrobiosystems, FCA-H52H1) (receptor)
chain: QVDTTKAVITLQPPWVSVFQEETVTLHCEVLHLPGSSSTQWFLNGTATQTSTPSYRITSASVNDSGEYRCQRGLSGRSDPIQLEIHRGWLLLQVSSRVFTEGEPLALRCHAWKDKLVYNVLYYRNGKAFKFFHWNSNLTILKTNISHNGTYHCSGMGKHRYTSAGISVTVKELFPAPVLNASVTSPLLEGNLVTLSCETKLLLQRPGLQLYFSFYMGSKTLRGRNTSSEYQILTARREDSGLYWCEAATEDGNVLKRSPELELQVLGLQLPTP
Which results are given for B1?
Kd: 2.34 nM and 1.61 nM and 0.963 nM; kon: 260000 M⁻¹ s⁻¹ and 189000 M⁻¹ s⁻¹ and 200000 M⁻¹ s⁻¹
